These results are taken from paper PMC13190736.

Assay [1] concerns the target staphylococcal enterotoxin C (SEC-2), wild type (Staphylococcus aureus) (UniProt P34071). Kind of assay: ELISA.
The target is the same in assay [2]. Kind of assay: SPR.

B1: Nb C107 (VHH)
VHH: QVQLVESGGGLVQPGGSLRLSCAPSGSTSGIYASGWYRQVPGKPQEWLADISRGGSTKYADSVKGRFTISRDNAKNTVYLQMNSLKPEDTATYYCRVIDTLGAEYRGQGTQVTVSS
In the case of B1, the EC50 in assay [1] stood at 2.5 nM.

B2: Nb C112 (VHH)
VHH: QVQLVESGGGLVQAGGSLRLSCTASERMYGIEMGWFRQAPGKERELVAAITWSGVVSHLQESVKGRFTISRDNPKKTVYLQMNSLKPEDTATYYCAGHRLQWASGYTRHDYGSWGQGTQVTVSS
Take B2: in assay [2], the Kd is 0.179 nM.
